The values that follow come from IntAct's records for PubMed 21708944.

First the molecules themselves.
B1: Chromosomal replication initiator protein DnaA (Escherichia coli (strain K12)), P03004 (parent)
chain: MSLSLWQQCLARLQDELPATEFSMWIRPLQAELSDNTLALYAPNRFVLDWVRDKYLNNINGLLTSFCGADAPQLRFEVGTKPVTQTPQAAVTSNVAAPAQVAQTQPQRAAPSTRSGWDNVPAPAEPTYRSNVNVKHTFDNFVEGKSNQLARAAARQVADNPGGAYNPLFLYGGTGLGKTHLLHAVGNGIMARKPNAKVVYMHSERFVQDMVKALQNNAIEEFKRYYRSVDALLIDDIQFFANKERSQEEFFHTFNALLEGNQQIILTSDRYPKEINGVEDRLKSRFGWGLTVAIEPPELETRVAILMKKADENDIRLPGEVAFFIAKRLRSNVRELEGALNRVIANANFTGRAITIDFVREALRDLLALQEKLVTIDNIQKTVAEYYKIKVADLLSKRRSRSVARPRQMAMALAKELTNHSLPEIGDAFGGRDHTTVLHACRKIEQLREESHDIKEDFSNLIRTLSS
partner: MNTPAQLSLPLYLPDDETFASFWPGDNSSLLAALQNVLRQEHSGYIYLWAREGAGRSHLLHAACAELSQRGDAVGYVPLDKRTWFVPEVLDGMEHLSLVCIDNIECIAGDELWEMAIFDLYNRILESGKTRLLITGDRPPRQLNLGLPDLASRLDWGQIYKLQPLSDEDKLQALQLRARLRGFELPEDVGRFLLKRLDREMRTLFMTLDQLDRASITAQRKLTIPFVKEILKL

In the assay the parent is B1. Particulars: with hda_ecoli hda.
In the case of MSLSLWQQCLARLQDELPATEFSMWIRPLQAELSDNTLALYAPNRFVLDWVRDKYLNNINGLLTSFCGADAPQLRFEVGTKPVTQTPQAAVTSNVAAPAQVAQTQPQRAAPSTRSGWDNVPAPAEPTYRSNVNVKHTFDNFVEGKSNQLARAAARQVADNPGGAYNPLFLYGGTGLGKTHLLHAVGNGIMARKPNAKVVYMHSERFVQDMVKALQNNAIEEFKRYYRSVDALLIDDIQFFANKERSQEEFFHTFNALLEGNQQIILTSDRYPKEINGVEDRLKSRFGWGLTVAIEPPELETRVAILMKKADENDIRLPGEVAFFIAKRLRSNVRELEGALNRVIANANFTGRAITIDFVREALRDLLALQEKLVTIDNIQKTVAEYYKIKVADLLSKRRSRSVARPRQMAMALAKELTNHSLAEIGDAFGGRDHTTVLHACRKIEQLREESHDIKEDFSNLIRTLSS [P423A], the “effect of a mutation on the interaction” value was “decreasing interaction”. Under MSLSLWQQCLARLQDELPATEFSMWIRPLQAELSDNTLALYAPNRFVLDWVRDKYLNNINGLLTSFCGADAPQLRFEVGTKPVTQTPQAAVTSNVAAPAQVAQTQPQRAAPSTRSGWDNVPAPAEPTYRSNVNVKHTFDNFVEGKSNQLARAAARQVADNPGGAYNPLFLYGGTGLGKTHLLHAVGNGIMARKPNAKVVYMHSERFVQDMVKALQNNAIEEFKRYYRSVDALLIDDIQFFANKERSQEEFFHTFNALLEGNQQIILTSDRYPKEINGVEDRLKSRFGWGLTVAIEPPELETRVAILMKKADENDIRLPGEVAFFIAKRLRSNVRELEGALNRVIANANFTGRAITIDFVREALRDLLALQEKLVTIDNIQKTVAEYYKIKVADLLSKRRSRSVARPRQMAMALAKELTNHSAPEIGDAFGGRDHTTVLHACRKIEQLREESHDIKEDFSNLIRTLSS [L422A] stands “decreasing interaction”. For MSLSLWQQCLARLQDELPATEFSMWIRPLQAELSDNTLALYAPNRFVLDWVRDKYLNNINGLLTSFCGADAPQLRFEVGTKPVTQTPQAAVTSNVAAPAQVAQTQPQRAAPSTRSGWDNVPAPAEPTYRSNVNVKHTFDNFVEGKSNQLARAAARQVADNPGGAYNPLFLYGGTGLGKTHLLHAVGNGIMARKPNAKVVYMHSERFVQDMVKALQNNAIEEFKRYYRSVDALLIDDIQFFANKERSQEEFFHTFNALLEGNQQIILTSDRYPKEINGVEDRLKSRFGWGLTVAIEPPELETRVAILMKKADENDIRLPGEVAFFIAKRLRSNVRELEGALNRVIANANFTGRAITIDFVREALRDLLALQEKLVTIDNIQKTVAEYYKIKVADLLSKRRSRSVARPRQMAMALAKELTNHSGPEIGDAFGGRDHTTVLHACRKIEQLREESHDIKEDFSNLIRTLSS [L422G], the “effect of a mutation on the interaction” value is recorded as “decreasing interaction”.
